Measurements published in patent publication US20170008928A1, “NOVEL PEPTIDES AND PEPTIDE DERIVATIVES AND USES THEREOF” (Novo Nordisk A/S, priority 2015, published 2017).

Assays:
[1] = Plasma exposure after the last dose in DIO mini-pigs; format: in vivo, Göttingen mini-pigs; conditions: combination group, liraglutide […]
Procedure: The CCK derivative was dissolved in the following buffer: 8 mM phosphate, 184 mM propylene glycol, 58 mM phenol, pH 7.4 concentrations ranging from 2000-10000 nmol/mL corresponding to dose volumes ranging from 0.00075-0.001 mL/kg. Liraglutide was dissolved in 8 mM phosphate, 184 mM propylenglycol, 58 mM phenol, pH 8.15 (1600 nmol/mL), dose volume was 0.001 mL/kg and this formulation also served as a vehicle for all 3 treatment groups. Animals were dosed subcutaneously once daily with vehicle, CCK derivative, liraglutide, or liraglutide in combination with the CCK derivative (given as two separate injections in each side of the neck). After the last dose blood samples were obtained in EDTA coated tubes at selected time points for up to 480 hours after dosing. Blood was sampled through central-venous catheters implanted under general anaesthesia after 11 weeks of treatment.
The resulting plasma was pipetted into Micronic tubes on dry ice, and kept at −20° C. until analysed for plasma exposure of liraglutide and the CCK derivative. Plasma content of the CCK derivative was measured using LC-MS method II, as described in Example 93. Plasma content of liraglutide was measured using LOCI (Luminescence Oxygen Channeling Immunoasssay). LOCI is generally described for the determination of insulin by Poulsen and Jensen in Journal of Biomolecular Screening 2007, vol. 12, p. 240-247. The donor beads were coated with streptavidin, while acceptor beads were conjugated with a monoclonal antibody recognising a C-terminal epitope of the peptide. Another monoclonal antibody, specific for the N-terminus, was biotinylated. The three reactants were combined with the analyte and formed a two-sited immuno-complex. Illumination of the complex released singlet oxygen atoms from the donor beads, which were channelled into the acceptor beads and triggered chemiluminescence which was measured in an Envision plate reader. The amount of light was proportional to the concentration of the compound.

[2] = biological target: T1, human cholecystokinin-1 receptor (human, UniProt P32238 1-428); assay: cell-based or functional assay
T1 sequence (looked up): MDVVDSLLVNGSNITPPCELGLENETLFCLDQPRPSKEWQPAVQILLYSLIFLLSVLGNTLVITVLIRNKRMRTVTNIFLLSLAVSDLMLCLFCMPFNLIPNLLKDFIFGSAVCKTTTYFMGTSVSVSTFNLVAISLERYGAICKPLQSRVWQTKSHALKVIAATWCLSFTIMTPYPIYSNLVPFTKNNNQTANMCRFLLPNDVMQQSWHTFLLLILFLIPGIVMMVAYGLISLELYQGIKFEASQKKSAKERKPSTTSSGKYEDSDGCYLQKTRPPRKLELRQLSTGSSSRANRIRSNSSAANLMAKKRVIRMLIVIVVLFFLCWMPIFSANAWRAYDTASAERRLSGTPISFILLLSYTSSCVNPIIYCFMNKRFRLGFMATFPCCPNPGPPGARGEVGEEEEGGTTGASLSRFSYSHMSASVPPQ

[3] = biological target: T2, human cholecystokinin-2 receptor (human, UniProt P32239 1-447); assay: cell-based or functional assay
T2 sequence (looked up): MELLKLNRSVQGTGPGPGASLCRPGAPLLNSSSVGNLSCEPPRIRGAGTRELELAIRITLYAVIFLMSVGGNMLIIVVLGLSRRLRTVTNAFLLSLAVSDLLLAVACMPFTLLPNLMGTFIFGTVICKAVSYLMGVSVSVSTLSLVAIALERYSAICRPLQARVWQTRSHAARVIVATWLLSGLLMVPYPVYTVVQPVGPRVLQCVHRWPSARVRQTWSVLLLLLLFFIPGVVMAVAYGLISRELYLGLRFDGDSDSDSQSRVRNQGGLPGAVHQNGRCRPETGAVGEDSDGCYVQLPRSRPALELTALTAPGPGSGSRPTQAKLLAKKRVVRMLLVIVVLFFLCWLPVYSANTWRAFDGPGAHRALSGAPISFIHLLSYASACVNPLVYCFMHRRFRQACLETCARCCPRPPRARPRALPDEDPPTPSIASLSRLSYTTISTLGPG

[4] = biological target: T1, human cholecystokinin-1 receptor; assay: ratio of SPA IC50s, reference CCK-2R

Compound: CCCCCCCCCCCCCCCC(=O)N[C@@H](CCC(=O)NCCCC[C@H](NC(=O)[C@H](C)NC(=O)[C@H](C)NC(=O)[C@H](CCC(N)=O)NC(=O)CNC(=O)[C@H](CCC(=O)O)NC(=O)[C@H](CC(C)C)NC(=O)[C@H](Cc1ccc(O)cc1)NC(=O)[C@H](CO)NC(=O)[C@H](CO)NC(=O)[C@@H](NC(=O)[C@H](CC(=O)O)NC(=O)[C@H](CO)NC(=O)[C@@H](NC(=O)[C@H](Cc1ccccc1)NC(=O)[C@@H](NC(=O)CNC(=O)[C@H](CCC(=O)O)NC(=O)[C@H](C)NC(=O)[C@@H](N)Cc1cnc[nH]1)[C@@H](C)O)[C@@H](C)O)C(C)C)C(=O)N[C@@H](CCC(=O)O)C(=O)N[C@@H](Cc1ccccc1)C(=O)N[C@H](C(=O)N[C@@H](C)C(=O)N[C@@H](Cc1c[nH]c2ccccc12)C(=O)N[C@@H](CC(C)C)C(=O)N[C@H](C(=O)N[C@@H](CCCNC(=N)N)C(=O)NCC(=O)N[C@@H](CCCNC(=N)N)C(=O)NCC(=O)O)C(C)C)[C@@H](C)CC)C(=O)O [Liraglutide, reference compound]
- AUCexposure (0-24 h) after last dose, Liraglutide [1]: Liraglutide: 399872 pM*h

Compound: Asp-sTyr-Nle-Gly-Trp-Nle-DMeAsp-1Nal-amide (peptide)
- CCK-1R selectivity (EC50 (CCK-2R)/EC50 (CCK-1R)) [2]: 2100
- EC50 (CCK-1R) [2]: 0.14 nM
- EC50 (CCK-2R) [3]: 290 nM
- CCK-1R binding selectivity (IC50 (CCK-2R)/IC50 (CCK-1R)) [4]: 84000
